Source: patent publication CN114409766A (AGRICULTURAL UNIV IN CHINA, dated 2022)

T1: EBV病毒颗粒 (gp350 on EB virus particles) (Epstein-Barr virus, UniProt P03200 1-907)
T1 construct: also called EBV颗粒; UV-EBV病毒颗粒
T1 sequence (looked up): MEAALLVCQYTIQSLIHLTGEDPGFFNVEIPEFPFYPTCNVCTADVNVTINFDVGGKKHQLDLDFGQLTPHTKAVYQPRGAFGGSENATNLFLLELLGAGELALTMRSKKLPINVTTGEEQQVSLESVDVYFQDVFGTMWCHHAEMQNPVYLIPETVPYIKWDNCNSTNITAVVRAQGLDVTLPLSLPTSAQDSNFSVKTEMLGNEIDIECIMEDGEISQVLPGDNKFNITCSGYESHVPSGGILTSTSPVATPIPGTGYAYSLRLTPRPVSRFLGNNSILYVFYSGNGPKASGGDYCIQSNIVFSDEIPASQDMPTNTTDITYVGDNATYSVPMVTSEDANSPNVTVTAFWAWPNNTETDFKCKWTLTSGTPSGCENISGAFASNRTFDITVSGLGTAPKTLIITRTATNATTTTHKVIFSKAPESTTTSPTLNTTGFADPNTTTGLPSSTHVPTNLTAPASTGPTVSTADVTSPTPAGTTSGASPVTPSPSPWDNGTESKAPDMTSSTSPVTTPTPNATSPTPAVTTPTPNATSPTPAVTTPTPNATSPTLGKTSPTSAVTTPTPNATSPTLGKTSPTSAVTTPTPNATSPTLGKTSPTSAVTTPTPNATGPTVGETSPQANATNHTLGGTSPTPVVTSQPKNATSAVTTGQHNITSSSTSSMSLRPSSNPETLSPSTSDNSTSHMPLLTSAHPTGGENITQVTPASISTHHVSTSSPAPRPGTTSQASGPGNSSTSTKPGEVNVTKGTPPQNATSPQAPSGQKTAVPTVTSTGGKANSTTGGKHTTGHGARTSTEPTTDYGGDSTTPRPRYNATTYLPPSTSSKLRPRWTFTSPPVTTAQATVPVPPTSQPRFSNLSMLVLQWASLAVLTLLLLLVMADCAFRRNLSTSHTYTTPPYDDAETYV

B1: 单克隆抗体R1 (scFv fused to FLAG tag or hFc) (scFv)
scFv: QSVKESEGGLFKPTDTLTLTCTVSGFSLSSNAISWVRQAPGNGLEYIGYISYRGNTYYASWARSRSTITRNTNENTVTLKMTRLTAADTATYFCARIRSYSRANGHADGFDPWGPGTLVTVSSGGGGSGGGGSGGGGSDVVMTQTPSSVSAAVGGTVTINCQASESISNLLAWYQQKPGQPPKLLIYGASNLESGVPSRFRGSGSGTQFTLTISGVKDEDVATYYCQSGRYAAGATFGAGTNVEIK
notes: also called R1抗体; 单抗R1
B2: 单克隆抗体R9 (scFv fused to FLAG tag or hFc) (scFv)
scFv: QSVKESEGGLFKPTDTLTLTCTVSGSSLRSYGVSWVRQAPGTGLEWIGAIGRSGSAYYASWAKSRSTITRNTNDNTVTLKMTSLTAADTATYFCARAYFGNSIGPFNIWGPGTLVTVSSGGGGSGGGGSGGGGSAIVLTQTPSSVSAPVGGTVTINCQASQSVSNLLAWYQQKPGQPPKLLIYGASNLESGVPSRFRGSGSGTQFTLTISGVKAEDVAAYYCHQHSSFPLTFGAGTKVEIK

Target: T1, EBV病毒颗粒 (gp350 on EB virus particles)
Assay: ELISA, EBV particles coated, titrated binder

Binder	binding result
B1	binds
B2	binds
